From paper PMC10562830 (Science translational medicine, 2023)

B1: 506.A08 Fab (Fab, V domains shown)
VH: EEQLVESGGGLVQPGGSLRLSCAASGFTFSSYSMNWVRQAPGKGLEWVSYISSSSSTIHYADSVKGRFTISRDNAKNSLYLQMNSLRAEDTAVYYCAREGNSGYEPLDYWGQGTLVTVS
VL: not shown
B2: 506.A08 (antibody, V domains shown)
VH: B1 VH
VL: not shown
B3: 506.C01 Fab (Fab, V domains shown)
VH: QVQLQESGPGLVKPSQTLSLTCTVSGGSISSDDYYWTWIRLPPGKGLEWIGYIFYTGGTYYNPSLKSRVTISLDRSKNQFSLKLSSVTAADTAVYFCARAPETYCSTTNCYKGYFDSWGQGTLVTVSS
VL: DIQMTQSPSSVSASVGDRVTITCRASQGISSWLGWYQQKPGKAPKLLIYAASSLQSGVPSRFSGSGSGTDFTLTISSLQPEDFATYYCQQANSFPRTFGQGTKVEIK
B4: 506.C01 (antibody, V domains shown)
VH: B3 VH
VL: B3 VL

Assays:
[1] = target: Chikungunya virus-like particles of the 37997 strain (Chikungunya virus, strain 37997, strain); test: cryo-EM structure
[2] = target: recombinant p62-E1 protein derived from the CHIKV-LR 2006 strain (Chikungunya virus, LR 2006 …, UniProt Q1H8W5, strain); test: ELISA

Binder	binding result [1]	binding result [2]
B1	binds	–
B2	–	binds
B3	binds	–
B4	–	binds
